This passage reports Ki results from article PMC6952207, “Development and Evaluation of a Novel Protein-Based Assay for Specific Detection of KPC β-Lactamases from Klebsiella pneumoniae Clinical Isolates” (mSphere, 2020).

Some targets named below: KPC-6 β-lactamase (UniProt Q9F663); CTX-M-15 β-lactamase (UniProt Q9EXV5); KPC-4 β-lactamase (UniProt Q9F663); KPC-5 β-lactamase (UniProt Q9F663); KPC-7 β-lactamase (UniProt Q9F663); KPC-3 β-lactamase (UniProt Q9F663); KPC-8 β-lactamase (UniProt Q9F663); KPC-9 β-lactamase (UniProt Q9F663).
What all share (experiment): enzyme inhibition assay (nitrocefin hydrolysis); β-lactamase (0.2 to 1 nM) mixed with increasing concentrations of BLIP^K74T/W112D in 50 mM sodium phosphate pH 7.0, 100 μg/ml BSA, room temperature, 20 min; initial nitrocefin hydrolysis rates at 482 nm fitted to the Morrison tight binding inhibitor equation
The target in test [1] is CTX-M-14 β-lactamase (enzyme of the Ki assay) (UniProt Q9L5C7).
Test [2] addresses TEM-1 β-lactamase (enzyme of the Ki assay) (UniProt P62593).
In the next test the target is T1, OXA-48 carbapenemase (UniProt Q6XEC0 23-265).
T1 construct: OXA-48 carbapenemase (β-lactamase)
The settings on record: both partners purified.

Test [3] has as its target T2, KPC-2 β-lactamase (purified) (UniProt Q9F663 30-293).
T2 construct: KPC-2 carbapenemase (class A β-lactamase); also called KPC-2 carbapenemase; source: E. coli BL21(DE3) (pET-28a+), purified (Co2+ Talon resin, Superdex75 gel filtration)
The settings on record: both partners purified.

For “β-lactamase inhibitory protein variant BLIP^K74T/W112D (from UniProt P35804 37-201) (natural protein)”, the inhibitory constant (Ki) in the test with KPC-6 β-lactamase is 1.3 nM; in the test with CTX-M-15 β-lactamase it was 433 nM; with KPC-4 β-lactamase, 1.2 nM; in the test with KPC-5 β-lactamase, 1.5 nM; with KPC-7 β-lactamase, 1.5 nM; in test [1] it was 908 nM. Besides, the Ki was 2.5 nM with KPC-3 β-lactamase, 1.6 nM with KPC-8 β-lactamase, 0.7 nM with KPC-9 β-lactamase and 6240 nM in [2].

B1: β-lactamase inhibitory protein variant BLIP^K74T/W112D (natural protein)
chain: AGVMTGAKFTQIQFGMTRQQVLDIAGAENCETGGSFGDSIHCRGHAAGDYYAYATFGFTSAAADAKVDSKSQETLLAPSAPTLTLAKFNQVTVGMTRAQVLATVGQGSCTTDSEYYPAYPSTAGVTLSLSCFDVDGYSSTGFYRGSAHLWFTDGVLQGKRQWDLV
notes: the variant was found there by mutagenesis and genetic screening; also called BLIP mutant; source: E. coli RB791 (plasmid pGR32), purified (Co2+ Talon resin, Superdex75 gel filtration); not shown: His6, N-terminal, kept
With B1, the Ki with OXA-48 carbapenemase came out at 1180 ± 129 nM; in [3], 2.4 ± 0.4 nM.

A word on the Ki: it is a measure of affinity in units of concentration, obtained from inhibition or displacement. A lower Ki goes with higher affinity.
